Assay results published in patent publication US20230287348A1.

Tests used:
[1] = target: CD123 antigen on AML cells (THP-1 cell line, primary AML blasts) (human) (UniProt P26951); assay: cell-based or functional assay
[2] = target: CD19 antigen on ALL cells (REH cell line, primary ALL blasts) (human) (UniProt P15391); assay: cell-based or functional assay
Sequence of UniProt P15391 (P15391 20-556): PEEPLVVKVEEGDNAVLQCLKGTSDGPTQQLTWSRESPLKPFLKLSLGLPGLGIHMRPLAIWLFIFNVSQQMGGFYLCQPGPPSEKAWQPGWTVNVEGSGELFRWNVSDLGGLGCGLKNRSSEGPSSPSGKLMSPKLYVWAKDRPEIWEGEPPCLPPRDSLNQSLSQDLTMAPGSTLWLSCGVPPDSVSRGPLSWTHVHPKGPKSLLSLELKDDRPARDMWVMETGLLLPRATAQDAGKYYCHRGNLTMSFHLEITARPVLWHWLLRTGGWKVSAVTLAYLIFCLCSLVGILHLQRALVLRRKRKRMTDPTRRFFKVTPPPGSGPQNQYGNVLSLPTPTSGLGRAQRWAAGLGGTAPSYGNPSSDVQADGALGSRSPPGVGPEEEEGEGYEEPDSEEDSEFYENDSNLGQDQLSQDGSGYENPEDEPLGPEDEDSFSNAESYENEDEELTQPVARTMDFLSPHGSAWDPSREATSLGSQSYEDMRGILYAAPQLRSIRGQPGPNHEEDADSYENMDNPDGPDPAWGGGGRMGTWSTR

Sequence of UniProt P26951 (P26951 19-378): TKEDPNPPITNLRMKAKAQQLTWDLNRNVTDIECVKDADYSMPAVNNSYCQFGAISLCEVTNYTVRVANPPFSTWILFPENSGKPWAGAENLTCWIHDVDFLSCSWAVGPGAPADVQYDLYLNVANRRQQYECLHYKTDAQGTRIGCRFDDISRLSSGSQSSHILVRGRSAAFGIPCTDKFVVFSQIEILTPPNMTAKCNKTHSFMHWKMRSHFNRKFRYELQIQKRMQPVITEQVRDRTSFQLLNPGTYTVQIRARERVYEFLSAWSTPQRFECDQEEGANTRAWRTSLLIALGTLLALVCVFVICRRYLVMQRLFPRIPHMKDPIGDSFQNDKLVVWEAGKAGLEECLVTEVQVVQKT

Substance | lysis of AML primary blasts by CD123·CAR+ CIK cell populations (cytotoxic assay) [1] [%] | lysis of THP-1 AML cell line by CD123·CAR+ CIK cell populations (cytotoxic assay) [1] [%] | lysis of ALL primary blasts by CD19·CAR+ CIK cell populations (cytotoxic assay) [2] [%] | lysis of REH ALL cell line by CD19·CAR+ CIK cell populations (cytotoxic assay) [2] [%]
CD123·CAR (anti-CD123 chimeric antigen receptor: scFv from mAb 7G3 in frame with CH2CH3-CD28-OX40-ζ), expressed on CIK cells (from UniProt P10747 153-220; P43489 242-277; P20963 52-163) | 60 | 85 | – | –
CD19·CAR (anti-CD19 chimeric antigen receptor: VL and VH of clone FMC63 in frame with CH2CH3-CD28-OX40-ζ), expressed on CIK cells (from UniProt P10747 153-220; P43489 242-277; P20963 52-163) | – | – | 56.8 | 80
